Test results reported in patent US6495144 (Johns Hopkins, dated 2002).
Positions count from the first letter of the chain named.

B1: wild-type EBNA2 peptide comprised of amino acids 252-425 (type A) (other)
chain: LHVPDQSMHPLTHQSTPNDPDSPEPRSPTVFYNIPPMPLPPSQLPPPAAPAQPPPGVINDQQLHHLPSGPPWWPPICDPPQPSKTQGQSRGQSRGRGRGRGRGRGKGKSRDKQRKPGGPWRPEPNTSSPSMPELSPVLGLHQGQGAGDSPTPGPSNAAPVCRNSHTATPNVSPI
notes: range 252-425; In vitro transcribed and translated, labeled with 35S-methionine; also called aa252-425 (wild-type); E2 252-425
B2: EBNA2 252-425 SR360VD (PKC) (other)
chain: B1 chain with S109V, R110D
notes: range 252-425; In vitro transcribed and translated; also called PKC mutation
B3: EBNA2 252-425 PI326SR (CR6) (other)
chain: B1 chain with P75S, I76R
notes: range 252-425; In vitro transcribed and translated
B4: EBNA2 252-425 WW323SR (CR6) (other)
chain: B1 chain with W72S, W73R
notes: as for B3
B5: EBNA2 252-425 GP320SR (CR6) (other)
chain: B1 chain with G69S, P70R
notes: as for B3
B6: EBNA2 252-425 LGL389SRT (CR7) (other)
chain: B1 chain with L138S, G139R, L140T
notes: range 252-425; In vitro transcribed and translated; also called CR7 mutation
B7: type B EBNA2 comprising amino acids 216-392 (other)
chain: GHQLSLPPHPPPHQSTPHCSSDSTGLPPPPTSYSIPSMTLSPEPLPPPAAPAHPLPGVIYDQQALPPTPGPPWWPPVRDPTPTTQTPPTNTKQGPDQGQGRGRWRGRGRSKGRGRMHKLPEPRRPGPDTSSPSMPQLSPVVSLHQGQGPENSPTPGPSTAGPVCRVTPSATPDISPI
notes: range 216-392; Prepared by in vitro transcription and translation; gene provided by Dr. Elliott Kieff; also called type B peptide

Tests used:
CBF1/RBPJk [1] = biological target: T1, CBF1/RBPJk (UniProt Q06330 1-500); experiment: EMSA supershift with heparin-agarose purified CBF1 and Cp CBF1 site probe; phosphoimager, relative to wild-type EBNA2(252-425)
T1 construct: also called CBF1 tethering protein

CBF1/RBPJk [2] = biological target: T1, CBF1/RBPJk; experiment: EMSA, against wild-type EBNA2 252-425
CBF1/RBPJk [3] = biological target: T1, CBF1/RBPJk; experiment: EMSA with two-fold increases in peptide amount, against type A EBNA2 252-425

T1 sequence (Q06330 whole entry): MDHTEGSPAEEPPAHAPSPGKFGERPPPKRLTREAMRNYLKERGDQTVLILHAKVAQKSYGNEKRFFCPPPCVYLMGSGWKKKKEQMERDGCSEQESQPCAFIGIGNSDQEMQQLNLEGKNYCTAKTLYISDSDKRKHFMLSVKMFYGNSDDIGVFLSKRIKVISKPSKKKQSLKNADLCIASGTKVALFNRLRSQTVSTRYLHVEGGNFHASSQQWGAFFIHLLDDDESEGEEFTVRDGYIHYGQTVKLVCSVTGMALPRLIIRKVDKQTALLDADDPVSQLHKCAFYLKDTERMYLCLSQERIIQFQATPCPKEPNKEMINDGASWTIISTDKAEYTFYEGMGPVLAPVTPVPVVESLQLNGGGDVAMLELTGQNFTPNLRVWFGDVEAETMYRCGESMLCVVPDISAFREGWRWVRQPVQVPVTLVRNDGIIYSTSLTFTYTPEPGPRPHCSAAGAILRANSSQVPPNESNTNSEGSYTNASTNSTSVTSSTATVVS

Binder | % Complex formation (CBF1/RBPJk [1]) | fold reduction in the amounts of EBNA2/CBF1 complex formed (CBF1/RBPJk [2]) | fold more peptide required than type A EBNA2 for conversion of all the CBF1 to the supershifted complex (CBF1/RBPJk [3])
B1 | 100% |  | 
B2 | 60% | ~2 fold | 
B3 | 5% |  | 
B4 | < 1% |  | 
B5 | 90% |  | 
B6 | 50% | ~2 fold | 
B7 |  |  | 2 fold
